US20060115897A1

Key:
C3b = C3b (UniProt P01024); test: cell-based or functional assay
C4b = C4b (UniProt P0C0L4); test: cell-based or functional assay
Sequence of C4b (P0C0L4 20-1744): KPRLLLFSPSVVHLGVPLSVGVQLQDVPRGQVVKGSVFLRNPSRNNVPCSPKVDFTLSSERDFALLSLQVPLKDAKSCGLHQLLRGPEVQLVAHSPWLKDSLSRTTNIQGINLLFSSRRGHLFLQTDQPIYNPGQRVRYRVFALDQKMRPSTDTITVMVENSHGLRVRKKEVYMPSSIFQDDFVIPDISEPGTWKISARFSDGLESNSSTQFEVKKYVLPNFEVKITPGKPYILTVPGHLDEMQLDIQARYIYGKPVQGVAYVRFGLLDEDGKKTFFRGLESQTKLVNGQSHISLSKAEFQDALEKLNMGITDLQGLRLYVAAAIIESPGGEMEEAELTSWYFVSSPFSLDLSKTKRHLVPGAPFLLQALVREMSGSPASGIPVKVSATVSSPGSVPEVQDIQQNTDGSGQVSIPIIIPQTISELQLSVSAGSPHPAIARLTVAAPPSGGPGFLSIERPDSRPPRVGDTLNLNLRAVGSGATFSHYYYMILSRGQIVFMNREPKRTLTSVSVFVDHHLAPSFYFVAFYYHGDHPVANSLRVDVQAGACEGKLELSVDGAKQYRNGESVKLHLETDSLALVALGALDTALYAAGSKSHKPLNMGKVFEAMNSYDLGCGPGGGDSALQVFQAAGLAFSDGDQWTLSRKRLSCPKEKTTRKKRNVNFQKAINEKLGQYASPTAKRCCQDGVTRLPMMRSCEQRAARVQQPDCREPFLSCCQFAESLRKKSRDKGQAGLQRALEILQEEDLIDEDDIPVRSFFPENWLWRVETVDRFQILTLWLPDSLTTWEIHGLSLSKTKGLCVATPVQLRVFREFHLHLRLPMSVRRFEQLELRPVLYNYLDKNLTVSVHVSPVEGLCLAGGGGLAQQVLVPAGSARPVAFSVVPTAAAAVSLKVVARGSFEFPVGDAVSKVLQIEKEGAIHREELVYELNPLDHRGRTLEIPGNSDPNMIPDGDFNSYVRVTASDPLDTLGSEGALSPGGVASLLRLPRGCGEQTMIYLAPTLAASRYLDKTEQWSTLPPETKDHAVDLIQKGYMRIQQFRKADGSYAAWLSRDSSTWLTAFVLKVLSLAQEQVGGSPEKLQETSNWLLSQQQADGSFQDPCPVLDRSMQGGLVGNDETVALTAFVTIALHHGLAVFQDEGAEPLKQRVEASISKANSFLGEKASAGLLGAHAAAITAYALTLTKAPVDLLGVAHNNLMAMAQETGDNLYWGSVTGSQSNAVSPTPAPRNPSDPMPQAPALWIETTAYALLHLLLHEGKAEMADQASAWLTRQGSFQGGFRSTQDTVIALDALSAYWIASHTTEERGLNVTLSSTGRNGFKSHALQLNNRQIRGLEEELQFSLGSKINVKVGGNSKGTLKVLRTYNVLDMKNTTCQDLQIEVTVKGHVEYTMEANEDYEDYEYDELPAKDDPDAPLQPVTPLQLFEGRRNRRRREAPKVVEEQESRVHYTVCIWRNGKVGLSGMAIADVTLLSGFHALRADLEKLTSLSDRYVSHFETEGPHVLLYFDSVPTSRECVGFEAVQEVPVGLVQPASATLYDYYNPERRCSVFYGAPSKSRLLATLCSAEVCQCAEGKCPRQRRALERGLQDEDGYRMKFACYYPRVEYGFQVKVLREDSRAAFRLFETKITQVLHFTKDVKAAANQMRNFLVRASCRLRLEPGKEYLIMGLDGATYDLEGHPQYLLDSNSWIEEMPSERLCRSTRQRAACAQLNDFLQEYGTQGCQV

Sequence of C3b (P01024 749-1663 limits assumed, chain 1 of 2): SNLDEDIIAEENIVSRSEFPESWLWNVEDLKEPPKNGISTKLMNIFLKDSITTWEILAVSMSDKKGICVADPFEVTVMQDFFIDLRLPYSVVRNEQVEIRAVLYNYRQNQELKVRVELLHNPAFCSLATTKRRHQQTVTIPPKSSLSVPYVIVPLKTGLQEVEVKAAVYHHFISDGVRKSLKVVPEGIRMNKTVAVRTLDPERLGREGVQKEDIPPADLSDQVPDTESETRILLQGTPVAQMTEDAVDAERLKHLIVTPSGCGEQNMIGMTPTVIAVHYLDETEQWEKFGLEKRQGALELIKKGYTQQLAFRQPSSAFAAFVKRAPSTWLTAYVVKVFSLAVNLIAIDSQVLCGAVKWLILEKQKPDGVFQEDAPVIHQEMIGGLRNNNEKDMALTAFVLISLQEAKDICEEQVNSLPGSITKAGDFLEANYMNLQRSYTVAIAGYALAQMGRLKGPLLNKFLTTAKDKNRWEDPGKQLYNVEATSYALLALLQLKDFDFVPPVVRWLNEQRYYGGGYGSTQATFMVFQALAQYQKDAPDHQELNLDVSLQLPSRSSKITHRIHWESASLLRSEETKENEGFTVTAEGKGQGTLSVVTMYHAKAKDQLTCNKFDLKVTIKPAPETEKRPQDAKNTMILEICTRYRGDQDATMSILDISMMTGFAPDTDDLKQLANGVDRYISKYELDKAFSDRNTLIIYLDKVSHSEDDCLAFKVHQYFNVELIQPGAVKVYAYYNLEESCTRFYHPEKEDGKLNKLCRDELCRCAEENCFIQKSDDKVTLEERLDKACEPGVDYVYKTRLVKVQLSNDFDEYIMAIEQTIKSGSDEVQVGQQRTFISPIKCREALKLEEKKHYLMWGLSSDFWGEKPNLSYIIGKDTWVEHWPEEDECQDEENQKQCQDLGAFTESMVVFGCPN
Sequence of C3b (P01024 23-667 limits assumed, chain 2 of 2): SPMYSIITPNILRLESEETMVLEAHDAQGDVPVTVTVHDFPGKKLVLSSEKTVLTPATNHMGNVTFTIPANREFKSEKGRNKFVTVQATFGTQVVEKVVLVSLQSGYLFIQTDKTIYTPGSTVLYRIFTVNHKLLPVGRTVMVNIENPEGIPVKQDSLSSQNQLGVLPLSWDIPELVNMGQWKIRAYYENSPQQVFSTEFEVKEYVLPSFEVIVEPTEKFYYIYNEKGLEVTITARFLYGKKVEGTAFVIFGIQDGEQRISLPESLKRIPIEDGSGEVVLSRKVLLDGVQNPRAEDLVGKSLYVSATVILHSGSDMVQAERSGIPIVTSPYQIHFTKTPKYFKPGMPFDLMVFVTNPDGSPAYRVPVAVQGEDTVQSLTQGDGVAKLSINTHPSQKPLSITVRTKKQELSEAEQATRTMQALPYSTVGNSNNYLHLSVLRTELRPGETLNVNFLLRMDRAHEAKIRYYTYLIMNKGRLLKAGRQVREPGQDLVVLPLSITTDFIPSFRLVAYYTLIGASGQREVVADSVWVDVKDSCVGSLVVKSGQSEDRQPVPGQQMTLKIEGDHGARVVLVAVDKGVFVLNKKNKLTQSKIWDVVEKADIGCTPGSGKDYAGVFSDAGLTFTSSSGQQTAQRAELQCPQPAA

Substance “histidine-tagged Smallpox Inhibitor of Complement Enzymes (SPICEhis) (from UniProt P68638 20-263)” has an efficiency as cofactor in the degradation of C3b, against VCPhis (C3b) of 100 fold and a speed as cofactor in the degradation of C4b, against VCPhis (C4b) of 6 fold.
